Measurements as given in the supplement of paper PMC9170038.

System: MS2 coat protein
Assay: apparent KD of MS2 coat protein; designed switch direction (-1 OFF switch, 1 ON switch): -1; higher = weaker reporter binding
Summary of the method: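 Three titration conditions were used: no input, 200 uM small-molecule ligand, and an oligonucleotide input. In each, SNAP-549-labelled MS2 coat protein was raised from 0.7 or 1.5 nM, doubling, to 3 µM over designed RNA switches transcribed on Illumina chips by stalled E. coli RNA polymerase. Curve fits of normalised cluster fluorescence gave values whose per-design median over clusters is the apparent KD.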

[1] = Eterna round: R95, input ligand: microRNA oligo, concentration not stated
[2] = input ligand: microRNA oligo, concentration not stated
[3] = Eterna round: R95, input ligand: FMN 200 uM
[4] = Eterna round: R95, input ligand: none

Sequence | apparent KD of MS2 coat protein [1] | apparent KD of MS2 coat protein (input ligand: FMN 200 uM) | apparent KD of MS2 coat protein (input ligand: none) | other results
UUUUAUUGCAAGGAUAUGCAAAUUAUUAUUAAUGCAGAAGGUGCUACAUGAGGAUCACCCAUGUUUCUGGGUUU [JR_E6_Sub043] (puzzle: Exclusion 6) | 110 nM |  |  | 
GAGUUAACAUGAGGAAUAUACAUGAGGAUCACCCAUGUUAACAAAACUUUUGCUCGUCUUAUAACAACAAUUAACUC [Alarm 2 - Jieux - Sensor, turn-off variant 1] (Eterna round: R97, puzzle: Sensor, turn-off variant 1) |  | 347 nM | 133 nM | 
ACAUGAGGAUCACCCAUGUCCGGCUGGUCUGUCUCGGCUGUCGAGGAUAUAGCUCGGUAUCCGCGCUAGAAGGCGGGAGCCGGC [Aenatbe mod 90] (Eterna round: R96, puzzle: Exclusion NG 3) |  | 98 nM | 72.7 nM | apparent KD of MS2 coat protein [2]: 43.5 nM
UUAAUGUGAGGAUAUCAGGUGUGCUAGCGUACUGGUACAUCUGAGAAGGCACAUGAGGAUCACCCAUGUUCCUU [JL-ex4-3.27 Brourd mod] (Eterna round: R96, puzzle: Exclusion 4) |  | 59.4 nM | 20.6 nM | apparent KD of MS2 coat protein [2]: 15.9 nM
ACAUGGAAGCAGGAUAUGCUUGUAUAAUUGAAAGCAGAAGGGCUAACAUGAGGAUCACCCAUGUAAGAGGUCUA [JR_E6_Sub060] (puzzle: Exclusion 6) | 21 nM |  |  | apparent KD of MS2 coat protein [3]: 91 nM; apparent KD of MS2 coat protein [4]: 24.7 nM
UAUUAGCAAGCGAGAUCCCACAUGAGGAUCACCCAUGUGCUCGUCUUAUAAGGUACUGUGACGAAAGUCACGGUACC [Sensor 3, v1 - 91] (puzzle: Sensor v3, turn-off variant 1) | 441 nM |  |  | apparent KD of MS2 coat protein [3]: 12.6 nM; apparent KD of MS2 coat protein [4]: 10.8 nM
GGGCCCGGUGUGAGGAUAUUUCGAGUGAAAGCUUGAGAGAAGGCACAUGAGGAUCACCCAUGUAAGCCGGGCCC [-36.4, -34.3 kcal, A 26%, 1bis-0] (Eterna round: R97, puzzle: Brourd's mod of Exclusion 4) |  | 15.1 nM | 17.8 nM | 
AUAAUGUGAGGAUAUCGAGACUACUGCCUCGGCAGUAGUCUCGAGAAGGCACAUGAGGAUCACCCAUGUGAUCA [E4/2-A2] (Eterna round: R97, puzzle: Exclusion 4) |  | 79 nM | 1190 nM | 
GUUAUUUCAGGAUAUACAUGAGGAUCACCCAUGUAAGCAAGGUGCCUGCAUCCCGACUGUAGAAGGGAAAUGAG [Eternabot (L2) Solution 61] (Eterna round: R97, puzzle: Exclusion 3) |  | 29.9 nM | 28.5 nM | 
UCGGCGCGAGGAUAUGCGGCUGGUGCUUCGGGCCCUGGCGUACAUGAGGAUCACCCAUGUAGAAGGCGCGCCGC [Apr-15 SS2-41] (puzzle: Exclusion 2) | 10.2 nM |  |  | 
ACUUAUUGAGGAUAUACAGAAAAUUACAUGAGGAUCACCCAUGUUCUUCAAUGUAUAUAUGUAGAAGGCAGAAUAU [Mat - Exclusion 5 - JL Mod - D19] (Eterna round: R97, puzzle: Exclusion 5) |  | 31.1 nM | 16.5 nM | 
CACGUGUCAGGAUAUCCCGCGCGCGCUUCACCGAGAGUGCGGGAGAAGGGACAUGAGGAUCACCCAUGUCCUUC [Eternabot (L1) Solution 93] (Eterna round: R97, puzzle: Exclusion 4) |  | 12.8 nM | 16.2 nM | 
CUUUUGUGAGGAUAUCAGUAGUAAAUUAAUAAAAUUACUACUGAGAAGGCACAUGAGGAUCACCCAUGUUCCUC [salish99_ex3_r3_078] (puzzle: Exclusion 4) | 41.9 nM |  |  | 
GGAUAAGGCGAGGAUAUCCAGAAACCCGACAAAGGAGAAGGCGCAACAUGAGGAUCACCCAUGUGGGUGCAUGU [Xeaormara] (puzzle: Exclusion 6) | 254 nM |  |  | apparent KD of MS2 coat protein [3]: 1080 nM; apparent KD of MS2 coat protein [4]: 280 nM
UUAAAUAGUGUGAGGAUAUGCUGGUCCUUGGAUCAGCAGAAGGCACAUGAGGAUCACCCAUGUAGUUAAUUUUA [Mat - Exclusion 4 - JL Mod - D22] (puzzle: Brourd's mod of Exclusion 4) | 37.4 nM |  |  | 
AUUAUAUAGACAGGAUAUUGAUUAUUAUUUUAACAUGAGGAUCACCCAUGUAACCUUAUGUGUAGCAAGAAGGGUCAUUUAUUA [Title] (Eterna round: R96, puzzle: Exclusion NG 2) |  |  |  | apparent KD of MS2 coat protein [2]: 81.8 nM
UUGUUGUAUGUAGGAUAUGCGUAUUAUUAUUAUGCAGAAGGACAUGAGGAUCACCCAUGUGUAUUAUUAUUAUAUAUUAUAUAU [Title] (Eterna round: R96, puzzle: Exclusion NG 1) |  | 44.3 nM | 19.7 nM | apparent KD of MS2 coat protein [2]: 20.8 nM
AACUGGACAGGAUAUGUUCUUGAGCACUUGAGGAUCACCCAAGUCAUCAAGAACUCAGGCACAGAAGGGUUUAUGA [jl-ex5.4.60 ViennaUCT mod] (Eterna round: R97, puzzle: Exclusion 5) |  | 28.9 nM | 13.4 nM | 

Sequence | apparent KD of MS2 coat protein [1] | apparent KD of MS2 coat protein (input ligand: FMN 200 uM) | apparent KD of MS2 coat protein (input ligand: none) | other results
CUCUUGUUAGGAUAUCAAACCAGCGGCGGAACCGCUGGUAGUGAGAAGGGACAUGAGGAUCACCCAUGUAAGAA [Bige] (puzzle: Exclusion 4) | 51.1 nM |  |  | apparent KD of MS2 coat protein [3]: 108 nM; apparent KD of MS2 coat protein [4]: 61.3 nM
GCCUCACUUGAGGAUCACCCAAGUCAGGAUAUCUACAGGCCGGCCAUACCAGCCUGCAAGAGAAGGGACUCUAA [Isriqu] (Eterna round: R97, puzzle: Exclusion 1) |  | 245 nM | 32.3 nM | 
UUUUAGUAAGGAUAUGAUUAGAUCUACGAAAGUAGAUCUAAUCAGAAGGUACAUGAGGAUCACCCAUGUAGAUU [Mod of Brourd 3 - Jieux - Exclusion 4] (Eterna round: R97, puzzle: Exclusion 4) |  | 24.2 nM | 18.5 nM | 
AAUGAUUGACGAGGAUAUUGUGGUAAAACACGACGAGAAGGCGUCUGUCACAUGAGGAUCACCCAUGUGAGCUUUGUGGAUAGA [Ex NG1 #72] (Eterna round: R96, puzzle: Exclusion NG 1) |  | 52.3 nM | 59.8 nM | apparent KD of MS2 coat protein [2]: 33.6 nM
UUUUUAUAUGAAGGAUAUACUUAACAUGAGGAUCACCCAUGUGGUGUUGUGAGUGAGUGAGUUUAGUAGAAGGUCAAUUCUUAU [JMF's solution 82] (Eterna round: R96, puzzle: Exclusion NG 2) |  | 516 nM | 395 nM | apparent KD of MS2 coat protein [2]: 651 nM
UAUGGUUAAGUCAGGAUAUGCACGAAGAGAUCAAUGCAGAAGGGACAUGAGGAUCACCCAUGUAAAGUCGUGUU [Ex4 #74] (Eterna round: R97, puzzle: Brourd's mod of Exclusion 4) |  | 55.1 nM | 27.7 nM | 
UUAUACGUUGAGGAUAUGUUAUUUAGUAUAGUUACAGAAGGCGAUACAUGAGGAUCACCCAUGUUUAUGGGCAU [Ex-6 Malc#1] (puzzle: Exclusion 6) | 196 nM |  |  | 
GAAAAGGUAGGAUAUACGAAAUAAAAGGGUAGAAAAAAAACACAUGAGGAUCACCCAUGUAGAAGGACCAAAAG [salish99_ex2_r3_084] (puzzle: Exclusion 2) | 15.5 nM |  |  | apparent KD of MS2 coat protein [3]: 52.9 nM; apparent KD of MS2 coat protein [4]: 34.7 nM
GCGCUGUCAGGAUAUCGCGCGCGCGCGGAAAUGUGUGUGUGUGAGAAGGGACAUGAGGAUCACCCAUGUGGUGU [-28.5, -27.5 kcal, A 20%, 6-6bis] (Eterna round: R97, puzzle: Exclusion 4) |  | 213 nM | 583 nM | 
GUGGAACAAGGAUAUCUAACCUCGGACAUGAGGAUCACCCAUGUAUGUCUCAAGAGACCUAGAGAAGGUGUUCGUG [Eternabot (L1) Solution 32] (Eterna round: R97, puzzle: Exclusion 5) |  | 50.8 nM | 30.7 nM | 
CUGAGCUCAGGAUAUACAUGAGGAUCACCCAUGUGUUCCUGCGACGUUAGUUGCACAUGUAGAAGGGAGUUCGG [Less Extended Mod of JL - ex3-3.35 Brourd mod] (puzzle: Exclusion 3) | 218 nM |  |  | 
UUAUAUAGUGUGAGGAUAUGCUGGUCCUUGGAUCAGCAGAAGGCACAUGAGGAUCACCCAUGUAGUUAAAUUUA [Mat - Exclusion 4 - JL Mod - D17] (puzzle: Brourd's mod of Exclusion 4) | 27.3 nM |  |  | 
UUUUGGCAUGUAGGAUAUGGGUCCGAUUAGGAUUUAGAAGGACAUGAGGAUCACCCAUGUGCAUUUAAUUGGUCAUUACCUUUU [EXclNG1-LROPPY11] (Eterna round: R96, puzzle: Exclusion NG 1) |  |  |  | apparent KD of MS2 coat protein [2]: 65.5 nM
AGAAAGGAAGGAUAUACAAGAAAGCUGGGCAACGUCUCAUAACAUGAGGAUCACCCAUGUAGAAGGUCCAGGAA [Tiusredi] (puzzle: Exclusion 2) | 21.2 nM |  |  | apparent KD of MS2 coat protein [3]: 35.7 nM; apparent KD of MS2 coat protein [4]: 19.3 nM
UCUUAUUGCAAGGAUAUGCAAAUUAUUAUUAAUGCAGAAGGUGCUACAUGAGGAUCACCCAUGUUUCCGGGUUU [JR_E6_Sub042] (puzzle: Exclusion 6) | 43.3 nM |  |  | 
ACCUUACAUGAGGAUCACCCAUGUCAGGAUAUCUCGGACGGCUGAAAACCAACCGUCCAGAGAAGGGACGAGGA [Solamaso] (puzzle: Exclusion 1) | 12.5 nM |  |  | 
ACAUGUAAUGCAGGAUAUGGGACACAUGAGGAUCACCCAUGUGACCAGAGGUAAUGCUAAGAGUCUCAGAAGGGUAUGUACAUG [Ex NG2 #49] (Eterna round: R96, puzzle: Exclusion NG 2) |  | 22.5 nM | 19 nM | apparent KD of MS2 coat protein [2]: 14.5 nM
